{"source": "patent US20230074793A1", "about": "(Xencor, published 2023)", "molecular_target": "PD1 (programmed cell death protein 1) (human, UniProt Q15116 25-288)", "sequence (Q15116 25-288)": "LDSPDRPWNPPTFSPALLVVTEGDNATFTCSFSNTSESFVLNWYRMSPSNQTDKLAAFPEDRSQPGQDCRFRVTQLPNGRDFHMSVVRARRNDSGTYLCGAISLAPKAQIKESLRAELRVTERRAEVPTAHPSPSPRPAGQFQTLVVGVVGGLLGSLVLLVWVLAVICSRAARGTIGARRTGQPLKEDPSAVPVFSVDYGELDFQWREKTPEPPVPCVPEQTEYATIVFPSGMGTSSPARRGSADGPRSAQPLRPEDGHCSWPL", "experiment": "cell-based or functional assay"}
{"binder": "XmAb®20717 (bispecific antibody, human IgG1, kappa) heavy: not shown scFv: EIVLTQSPATLSASPGERVTLTCRASQSVGNDVAWYQQKPGQAPRLLINYASHRYTGVPDRFTGSGYGTEFTLTISSVQSEDFGVYYCQQDFSSPRTFGGGTKVEIKGKPGSGKPGSGKPGSGKPGSEVQLVESGGGLVKPGGSLRLSCVASGFTFSNYWMNWVRQAPGKGLEWVAEIRLYSNNYATHYAESVKGRFTISRDDSKSTLYLQMNNLKTEDTGVYYCTRYYGNYGGYFDVWGRGTLVTVSSEPKSSDKTHTCPPCPAPPVAGPSVFLFPPKPKDTLMISRTPEVTCVVVDVKHEDPEVKFNWYVDGVEVHNAKTKPREEQYNSTYRVVSVLTVLHQDWLNGKEYKCKVSNKALPAPIEKTISKAKGQPREPQVYTLPPSREQMTKNQVKLTCLVKGFYPSDIAVEWESNGQPENNYKTTPPVLDSDGSFFLYSKLTVDKSRWQQGNVFSCSVLHEALHSHYTQKSLSLSPGK light: not shown", "values": [{"measurement": "IL-2 secretion (ELISA of culture supernatants) from SEB-stimulated human PBMC treated 24 hours, versus anti-RSV isotype-control bivalent antibody XENP15074", "result": 4.1, "unit": "fold"}, {"measurement": "IL-2 secretion (ELISA) from SEB-stimulated human PBMC, versus a mixture of the monovalent component antibodies XENP20111 (anti-PD1 scFv-Fc) and XENP20059 (anti-CTLA4 Fab-Fc)", "result": 1.6, "unit": "fold"}, {"measurement": "IL-2 secretion (ELISA) from SEB-stimulated human PBMC, versus the bivalent anti-PD1 antibody XENP16432", "result": 1.5, "unit": "fold"}]}
